Tests used:
A549 = test: MTS cell proliferation assay; assay type: cell-based, human; details: A549 (Lung); 1 μg/ml, ±10 μg/ml αmFc; two days
Protocol: (§1) Cell lines obtained from ATCC were cultured under standard tissue culture conditions. Each cell line was plated at ˜2×10^4 cells/well (in 96-well plates), and incubated overnight in F12/DMEM media supplemented with 10% FBS. […] Cell viability was determined using Promega CellTiter 96® AQeous Non-Radioactive Cell Proliferation Assay (Cat # G5430) essentially as described in the manufacturer's instructions to assay the amount of soluble formazan produced by cellular reduction of the MTS, which is a measure of the number of viable cells in the culture. Briefly, MTS/PMS regent was added to the wells and the absorbance at 490 nm (referenced at […]) was read in a Molecular Devices ThermoMax microplate reader.
(§2) Similar studies were performed over a range of anti-DR5 mAb concentrations from ˜10^−3 nM to ˜10^2 nM. The data for COLO205 cells is provided in FIG. 13, and are representative of cell lines sensitive to the antibodies of the invention.
(§3) The cytotoxicity of tetravalent DR5-Binding Molecules of the present invention was investigated. […] His-tagged TRAIL (R&D systems) was used as a positive control.
(§4) Similar studies were performed over a range of anti-DR5 mAb concentrations from ˜10^−3 nM to ˜10^2 nM.

LNCap = test: MTS cell proliferation assay; assay type: cell-based, human; details: LNCap (Prostate); 1 μg/ml, ±10 μg/ml αmFc; two days
Protocol: as §1, §2, §3, §4

[1] = system: human DR5-Fc fusion protein; test: competition for binding to immobilized DR5-Fc fusion; details: for amount of immobilized biotinylated antibody: 1 μg/mL biotinylated DR5 mAb, 1 μg/mL DR5-Fc Fusion coat
Protocol: In order to determine whether the antibodies bound to different DR5 epitopes, a human DR5-Fc fusion protein was prepared and was coated to an immobilized surface.

histidine tagged TRAIL = histidine tagged TRAIL (Homo sapiens, UniProt P50591); test: binding to TRAIL-His coat; details: 2 μg/mL biotinylated; 1 μg/mL TRAIL-His coat
Protocol: The amount of immobilized biotinylated antibody was assessed.

colon cancer tissue = test: tissue staining with labeled molecule; assay type: binding; details: 5 μg/mL
Excerpt: (§5) The results presented in FIGS. 15A-15B, 16, and Table 10, thus indicate that a tetravalent DR5-Binding Molecule (bispecific for two epitopes of DR5) was capable of specifically binding to cancer cells.

lung cancer tissue = test: tissue staining with labeled molecule; assay type: binding; details: 5 μg/mL
Excerpt: as §5

[2] = system: normal tissue (colon, liver, lung, pancreas, kidney, heart); test: tissue staining with labeled molecule; assay type: binding; details: 5 μg/mL
Excerpt: as §5

MCF7 = test: […]-GLO cell viability assay with vorinostat; assay type: cell-based; details: MCF7 (Breast); 1 μg/ml + 10 μM Vorinostat
Hs746T = test: […]-GLO cell viability assay with vorinostat; assay type: cell-based; details: Hs746T (Stomach); 1 μg/ml + 10 μM Vorinostat
HPAFII = test: […]-GLO cell viability assay with vorinostat; assay type: cell-based; details: HPAFII (Pancreas); 1 μg/ml + 10 μM Vorinostat
22RV1 = test: […]-GLO cell viability assay with vorinostat; assay type: cell-based; details: 22RV1 (Prostate); 1 μg/ml + 10 μM Vorinostat
SKBR3 = test: […]-GLO cell viability assay with vorinostat; assay type: cell-based, human; details: SKBR3 (Breast); 1 μg/ml + 1 μM Vorinostat
Calu3 = test: […]-GLO cell viability assay with vorinostat; assay type: cell-based; details: Calu3 (Lung); 1 μg/ml + 1 μM Vorinostat

Chain of human DR5-Fc fusion protein (as listed by the source): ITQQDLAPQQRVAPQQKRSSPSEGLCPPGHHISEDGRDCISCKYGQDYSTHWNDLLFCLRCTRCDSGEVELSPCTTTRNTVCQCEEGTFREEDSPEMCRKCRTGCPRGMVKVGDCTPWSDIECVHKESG
Chain of histidine tagged TRAIL (P50591 114-281 limits assumed): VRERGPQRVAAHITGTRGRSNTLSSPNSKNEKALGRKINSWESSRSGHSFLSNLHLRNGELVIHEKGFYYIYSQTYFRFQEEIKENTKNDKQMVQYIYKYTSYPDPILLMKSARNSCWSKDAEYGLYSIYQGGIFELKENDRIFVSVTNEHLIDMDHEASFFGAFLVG

Row | Molecule | % Inhibition (Average) (A549) [%] | % Inhibition (Average) (LNCap) [%] | epitope comparison by competition [1] | amount of immobilized biotinylated antibody ([1]; 10 μg/mL competitor DR5 mAb 2) | amount of immobilized biotinylated antibody ([1]; 10 μg/mL competitor mIgG) | amount of immobilized biotinylated antibody (histidine tagged TRAIL) | labeling of cells of colon cancer tissue (colon cancer tissue) | labeling of cells of lung cancer tissue (lung cancer tissue) | labeling of cells of normal tissue [2] | Net Gain (Average % Growth Inhibition) (MCF7) [%] | Net Gain (Average % Growth Inhibition) (Hs746T) [%] | Net Gain (Average % Growth Inhibition) (HPAFII) [%] | Net Gain (Average % Growth Inhibition) (22RV1) [%] | Net Gain (Average % Growth Inhibition) (SKBR3) [%] | Net Gain (Average % Growth Inhibition) (Calu3) [%] | amount of immobilized biotinylated antibody ([1]; 10 μg/mL competitor DR5 mAb 1)
1 | DR5 mAb 1: anti-human DR5 monoclonal antibody; VL SEQ ID NO:3, VH SEQ ID NO:8 (antibody, listed as Mus musculus, V domains shown, (1)..(121) Anti-DR5 Antibody mAb 1 Heavy Chain Variable Region; (1)..(111) Anti-DR5 Antibody mAb 1 Light Chain Variable Region) VH: EVKFLESGGGLVQPGGSLKLSCVASGFDFSRYWMSWVRQAPGKGLEWIGEINPDSNTINYTPSLKDKFIISRDNAKNTLYLQMTKVRSEDTALYYCTRRAYYGNPAWFAYWGQGTLVTVSS VL: DIVLTQSPASLAVSLGQRATISCRASKSVSSSGYSYMHWYQQKPGQPPKVLIFLSSNLDSGVPARFSGSGSGTDFTLNIHPVEDGDAATYYCQHSRDLPPTFGGGTKLEIK | 2.79 | 2.1 | bind to different epitopes | 0.826 | 2.162 | 0.007 | strongly label | strongly label | failed to label | 4.55 | 0.20 | 1.75 | 7.49 | 0.69 | 0.11 | 
2 | DR5 mAb 2: murine anti-human DR5 monoclonal antibody; VL SEQ ID NO:13, VH SEQ ID NO:18 (antibody, listed as Mus musculus, V domains shown, (1)..(119) Anti-DR5 Antibody mAb 2 Heavy Chain Variable Region; (1)..(107) Anti-DR5 Antibody mAb 2 Light Chain Variable Region) VH: KVQLQQSGAELVKPGASVKLSCKASGYTFTEYILHWVKQKSGQGLEWIGWFYPGNNNIKYNEKFKDKATLTADKSSSTVYMELSRLTSEDSAVYFCARHEQGPGYFDYWGQGTTLTVSS VL: DIVMTQSHKFMSTSVGDRVSITCKASQDVNTAVAWYQQKPGQSPKLLIYWASTRHTGVPDRFTGSGSGTDYTLTIKSVQAEDLTLYYCQQHYITPWTFGGGTKLEIK | 4.25 | 1.72 | bind to different epitopes |  | 2.102 | 0.008 | strongly label | strongly label | failed to label | 5.00 | 0.20 | 2.86 | 7.49 | 0.69 | 0.11 | 2.377

From patent US10501552B2, “Multivalent molecules comprising DR5-binding domains” (MacroGenics, Inc., priority 2015, dated 2019)
